Measurements published in patent US12679878B2, “CRF2 receptor agonists and their use in therapy” (SANOFI, priority 2020, dated 2026).
Starred links: 1 amine or outer side, 2 acyl side, 3 side chain; linkers in the order of their positions; H or OH if unused. Non-standard residues stand in square brackets, D forms with d. Groups on a side chain read outwards from the residue. No end group written: not given here. *: point of attachment. C18 diacid = O=C(O)CCCCCCCCCCCCCCCCC(=O)*; γGlu = O=C(O)[C@H](CCC(=O)[*:2])N[*:1]; AEEA = NCCOCCOCC(=O)O; Aib = CC(C)(N)C(=O)O

Target: human corticotropin-releasing factor 2α (CRF2 α receptor) (human), Q13324
Sequence (Q13324 20-411): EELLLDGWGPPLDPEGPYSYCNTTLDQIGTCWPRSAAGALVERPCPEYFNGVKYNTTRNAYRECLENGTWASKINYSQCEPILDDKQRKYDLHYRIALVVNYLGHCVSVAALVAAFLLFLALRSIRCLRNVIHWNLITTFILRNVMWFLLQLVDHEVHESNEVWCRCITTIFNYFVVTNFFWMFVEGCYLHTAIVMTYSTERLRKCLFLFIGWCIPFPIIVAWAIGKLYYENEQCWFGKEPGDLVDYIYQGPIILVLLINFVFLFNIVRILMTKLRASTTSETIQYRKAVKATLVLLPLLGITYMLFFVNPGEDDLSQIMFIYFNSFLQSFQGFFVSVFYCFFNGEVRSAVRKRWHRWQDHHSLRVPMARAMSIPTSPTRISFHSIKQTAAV
Assay: cell-based or functional assay

| EC50 [nM], 0% HSA [nM] | EC50 [nM], 0.1% HSA [nM] | Binder |
| --- | --- | --- |
| 12.7 |  | IVLSLDVPIKLK([AEEA-AEEA-γGlu-C18 diacid])QILLEQERQR[Aib]ERQQAETNVRILERV-NH2 (N-terminus assumed; SMILES CC[C@H](C)[C@H](N)C(=O)N[C@H](C(=O)N[C@@H](CC(C)C)C(=O)N[C@@H](CO)C(=O)N[C@@H](CC(C)C)C(=O)N[C@@H](CC(=O)O)C(=O)N[C@H](C(=O)N1CCC[C@H]1C(=O)N[C@H](C(=O)N[C@@H](CCCCN)C(=O)N[C@@H](CC(C)C)C(=O)N[C@@H](CCCCNC(=O)COCCOCCNC(=O)COCCOCCNC(=O)CC[C@H](NC(=O)CCCCCCCCCCCCCCCCC(=O)O)C(=O)O)C(=O)N[C@@H](CCC(N)=O)C(=O)N[C@H](C(=O)N[C@@H](CC(C)C)C(=O)N[C@@H](CC(C)C)C(=O)N[C@@H](CCC(=O)O)C(=O)N[C@@H](CCC(N)=O)C(=O)N[C@@H](CCC(=O)O)C(=O)N[C@@H](CCCNC(=N)N)C(=O)N[C@@H](CCC(N)=O)C(=O)N[C@@H](CCCNC(=N)N)C(=O)NC(C)(C)C(=O)N[C@@H](CCC(=O)O)C(=O)N[C@@H](CCCNC(=N)N)C(=O)N[C@@H](CCC(N)=O)C(=O)N[C@@H](CCC(N)=O)C(=O)N[C@@H](C)C(=O)N[C@@H](CCC(=O)O)C(=O)N[C@H](C(=O)N[C@@H](CC(N)=O)C(=O)N[C@H](C(=O)N[C@@H](CCCNC(=N)N)C(=O)N[C@H](C(=O)N[C@@H](CC(C)C)C(=O)N[C@@H](CCC(=O)O)C(=O)N[C@@H](CCCNC(=N)N)C(=O)N[C@H](C(N)=O)C(C)C)[C@@H](C)CC)C(C)C)[C@@H](C)O)[C@@H](C)CC)[C@@H](C)CC)C(C)C)C(C)C) [SEQ ID NO: 49] |
| 0.32 | 21.4 | FTLSLDVPTKIK([AEEA-AEEA-γGlu-C18 diacid])QILLKQQKQKKERQQAEKNKQLLEQI-NH2 (N-terminus assumed; SMILES CC[C@H](C)[C@H](NC(=O)[C@H](CCC(N)=O)NC(=O)[C@H](CCC(=O)O)NC(=O)[C@H](CC(C)C)NC(=O)[C@H](CC(C)C)NC(=O)[C@H](CCC(N)=O)NC(=O)[C@H](CCCCN)NC(=O)[C@H](CC(N)=O)NC(=O)[C@H](CCCCN)NC(=O)[C@H](CCC(=O)O)NC(=O)[C@H](C)NC(=O)[C@H](CCC(N)=O)NC(=O)[C@H](CCC(N)=O)NC(=O)[C@H](CCCNC(=N)N)NC(=O)[C@H](CCC(=O)O)NC(=O)[C@H](CCCCN)NC(=O)[C@H](CCCCN)NC(=O)[C@H](CCC(N)=O)NC(=O)[C@H](CCCCN)NC(=O)[C@H](CCC(N)=O)NC(=O)[C@H](CCC(N)=O)NC(=O)[C@H](CCCCN)NC(=O)[C@H](CC(C)C)NC(=O)[C@H](CC(C)C)NC(=O)[C@@H](NC(=O)[C@H](CCC(N)=O)NC(=O)[C@H](CCCCNC(=O)COCCOCCNC(=O)COCCOCCNC(=O)CC[C@H](NC(=O)CCCCCCCCCCCCCCCCC(=O)O)C(=O)O)NC(=O)[C@@H](NC(=O)[C@H](CCCCN)NC(=O)[C@@H](NC(=O)[C@@H]1CCCN1C(=O)[C@@H](NC(=O)[C@H](CC(=O)O)NC(=O)[C@H](CC(C)C)NC(=O)[C@H](CO)NC(=O)[C@H](CC(C)C)NC(=O)[C@@H](NC(=O)[C@@H](N)Cc1ccccc1)[C@@H](C)O)C(C)C)[C@@H](C)O)[C@@H](C)CC)[C@@H](C)CC)C(N)=O) [SEQ ID NO: 51] |
| 0.52 |  | IVLSLDVPIKLK([AEEA-AEEA-γGlu-C18 diacid])QILLEQAKQK[Aib]LRAQAETNVRILERV-NH2 (N-terminus assumed; SMILES CC[C@H](C)[C@H](N)C(=O)N[C@H](C(=O)N[C@@H](CC(C)C)C(=O)N[C@@H](CO)C(=O)N[C@@H](CC(C)C)C(=O)N[C@@H](CC(=O)O)C(=O)N[C@H](C(=O)N1CCC[C@H]1C(=O)N[C@H](C(=O)N[C@@H](CCCCN)C(=O)N[C@@H](CC(C)C)C(=O)N[C@@H](CCCCNC(=O)COCCOCCNC(=O)COCCOCCNC(=O)CC[C@H](NC(=O)CCCCCCCCCCCCCCCCC(=O)O)C(=O)O)C(=O)N[C@@H](CCC(N)=O)C(=O)N[C@H](C(=O)N[C@@H](CC(C)C)C(=O)N[C@@H](CC(C)C)C(=O)N[C@@H](CCC(=O)O)C(=O)N[C@@H](CCC(N)=O)C(=O)N[C@@H](C)C(=O)N[C@@H](CCCCN)C(=O)N[C@@H](CCC(N)=O)C(=O)N[C@@H](CCCCN)C(=O)NC(C)(C)C(=O)N[C@@H](CC(C)C)C(=O)N[C@@H](CCCNC(=N)N)C(=O)N[C@@H](C)C(=O)N[C@@H](CCC(N)=O)C(=O)N[C@@H](C)C(=O)N[C@@H](CCC(=O)O)C(=O)N[C@H](C(=O)N[C@@H](CC(N)=O)C(=O)N[C@H](C(=O)N[C@@H](CCCNC(=N)N)C(=O)N[C@H](C(=O)N[C@@H](CC(C)C)C(=O)N[C@@H](CCC(=O)O)C(=O)N[C@@H](CCCNC(=N)N)C(=O)N[C@H](C(N)=O)C(C)C)[C@@H](C)CC)C(C)C)[C@@H](C)O)[C@@H](C)CC)[C@@H](C)CC)C(C)C)C(C)C) [SEQ ID NO: 46] |
| 2.2 |  | IVLSLDVPIKLK([AEEA-AEEA-γGlu-C18 diacid])QILLEQERQR[Aib]ERQQAETNVQILAQV-NH2 (N-terminus assumed; SMILES CC[C@H](C)[C@H](N)C(=O)N[C@H](C(=O)N[C@@H](CC(C)C)C(=O)N[C@@H](CO)C(=O)N[C@@H](CC(C)C)C(=O)N[C@@H](CC(=O)O)C(=O)N[C@H](C(=O)N1CCC[C@H]1C(=O)N[C@H](C(=O)N[C@@H](CCCCN)C(=O)N[C@@H](CC(C)C)C(=O)N[C@@H](CCCCNC(=O)COCCOCCNC(=O)COCCOCCNC(=O)CC[C@H](NC(=O)CCCCCCCCCCCCCCCCC(=O)O)C(=O)O)C(=O)N[C@@H](CCC(N)=O)C(=O)N[C@H](C(=O)N[C@@H](CC(C)C)C(=O)N[C@@H](CC(C)C)C(=O)N[C@@H](CCC(=O)O)C(=O)N[C@@H](CCC(N)=O)C(=O)N[C@@H](CCC(=O)O)C(=O)N[C@@H](CCCNC(=N)N)C(=O)N[C@@H](CCC(N)=O)C(=O)N[C@@H](CCCNC(=N)N)C(=O)NC(C)(C)C(=O)N[C@@H](CCC(=O)O)C(=O)N[C@@H](CCCNC(=N)N)C(=O)N[C@@H](CCC(N)=O)C(=O)N[C@@H](CCC(N)=O)C(=O)N[C@@H](C)C(=O)N[C@@H](CCC(=O)O)C(=O)N[C@H](C(=O)N[C@@H](CC(N)=O)C(=O)N[C@H](C(=O)N[C@@H](CCC(N)=O)C(=O)N[C@H](C(=O)N[C@@H](CC(C)C)C(=O)N[C@@H](C)C(=O)N[C@@H](CCC(N)=O)C(=O)N[C@H](C(N)=O)C(C)C)[C@@H](C)CC)C(C)C)[C@@H](C)O)[C@@H](C)CC)[C@@H](C)CC)C(C)C)C(C)C) [SEQ ID NO: 48] |
| 17.2 |  | IVLSLDVPTKLK([AEEA-AEEA-γGlu-C18 diacid])QILLKQERQR[Aib]ERQQAETNVRILERV-NH2 (N-terminus assumed; SMILES CC[C@H](C)[C@H](N)C(=O)N[C@H](C(=O)N[C@@H](CC(C)C)C(=O)N[C@@H](CO)C(=O)N[C@@H](CC(C)C)C(=O)N[C@@H](CC(=O)O)C(=O)N[C@H](C(=O)N1CCC[C@H]1C(=O)N[C@H](C(=O)N[C@@H](CCCCN)C(=O)N[C@@H](CC(C)C)C(=O)N[C@@H](CCCCNC(=O)COCCOCCNC(=O)COCCOCCNC(=O)CC[C@H](NC(=O)CCCCCCCCCCCCCCCCC(=O)O)C(=O)O)C(=O)N[C@@H](CCC(N)=O)C(=O)N[C@H](C(=O)N[C@@H](CC(C)C)C(=O)N[C@@H](CC(C)C)C(=O)N[C@@H](CCCCN)C(=O)N[C@@H](CCC(N)=O)C(=O)N[C@@H](CCC(=O)O)C(=O)N[C@@H](CCCNC(=N)N)C(=O)N[C@@H](CCC(N)=O)C(=O)N[C@@H](CCCNC(=N)N)C(=O)NC(C)(C)C(=O)N[C@@H](CCC(=O)O)C(=O)N[C@@H](CCCNC(=N)N)C(=O)N[C@@H](CCC(N)=O)C(=O)N[C@@H](CCC(N)=O)C(=O)N[C@@H](C)C(=O)N[C@@H](CCC(=O)O)C(=O)N[C@H](C(=O)N[C@@H](CC(N)=O)C(=O)N[C@H](C(=O)N[C@@H](CCCNC(=N)N)C(=O)N[C@H](C(=O)N[C@@H](CC(C)C)C(=O)N[C@@H](CCC(=O)O)C(=O)N[C@@H](CCCNC(=N)N)C(=O)N[C@H](C(N)=O)C(C)C)[C@@H](C)CC)C(C)C)[C@@H](C)O)[C@@H](C)CC)[C@@H](C)O)C(C)C)C(C)C) [SEQ ID NO: 50] |
| 6.85 |  | IVLSLD[dV]PTKLK([AEEA-AEEA-γGlu-C18 diacid])KKLLKQERKR[Aib]EREKAEKAARILERV-NH2 [SEQ ID NO: 47] |
| 3.77 |  | IVLSLDVPIKLK([AEEA-AEEA-γGlu-C18 diacid])QILLEQAKQK[Aib]LKAQAETNVRILERV-NH2 (N-terminus assumed; SMILES CC[C@H](C)[C@H](N)C(=O)N[C@H](C(=O)N[C@@H](CC(C)C)C(=O)N[C@@H](CO)C(=O)N[C@@H](CC(C)C)C(=O)N[C@@H](CC(=O)O)C(=O)N[C@H](C(=O)N1CCC[C@H]1C(=O)N[C@H](C(=O)N[C@@H](CCCCN)C(=O)N[C@@H](CC(C)C)C(=O)N[C@@H](CCCCNC(=O)COCCOCCNC(=O)COCCOCCNC(=O)CC[C@H](NC(=O)CCCCCCCCCCCCCCCCC(=O)O)C(=O)O)C(=O)N[C@@H](CCC(N)=O)C(=O)N[C@H](C(=O)N[C@@H](CC(C)C)C(=O)N[C@@H](CC(C)C)C(=O)N[C@@H](CCC(=O)O)C(=O)N[C@@H](CCC(N)=O)C(=O)N[C@@H](C)C(=O)N[C@@H](CCCCN)C(=O)N[C@@H](CCC(N)=O)C(=O)N[C@@H](CCCCN)C(=O)NC(C)(C)C(=O)N[C@@H](CC(C)C)C(=O)N[C@@H](CCCCN)C(=O)N[C@@H](C)C(=O)N[C@@H](CCC(N)=O)C(=O)N[C@@H](C)C(=O)N[C@@H](CCC(=O)O)C(=O)N[C@H](C(=O)N[C@@H](CC(N)=O)C(=O)N[C@H](C(=O)N[C@@H](CCCNC(=N)N)C(=O)N[C@H](C(=O)N[C@@H](CC(C)C)C(=O)N[C@@H](CCC(=O)O)C(=O)N[C@@H](CCCNC(=N)N)C(=O)N[C@H](C(N)=O)C(C)C)[C@@H](C)CC)C(C)C)[C@@H](C)O)[C@@H](C)CC)[C@@H](C)CC)C(C)C)C(C)C) [SEQ ID NO: 45] |
